The supplement of paper PMC10567573

B1: NCF4 (parent)
chain: FVKILKDFPEEDDPTNWLRCYYYE
B2: PPP2R2B (parent)
chain: PSNRSFFSEIISSISDVKFSHSGR

Variants of: B1
Assay: protein stability index of a GFP-peptide fusion (GPS, HEK-293T) (PSI 1-6); higher = more stable
Conditions: c terminus: a fixed tail appended
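Also: lentivirally expressed fusions sorted by FACS into six bins by GFP to DsRed ratio, PSI derived from sequencing read proportions per bin multiplied by bin number.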

In order of falling protein stability index:
1. R19H  3.89
2. F1W  3.29
3. P14R  3.25
4. F8W  3.2
5. K6S  3.11
6. I4K  3.09
7. N16C  3.04
8. E24L  2.95
9. L5P  2.95
10. F8S  2.92
11. R19P  2.54
12. P14G  2.52
13. D7P  2.49
14. K3T  2.48
15. W17H  2.34
16. C20K  2.32
17. E24V  2.32
18. T15M  2.32
19. R19F  2.28
20. I4H  2.17
21. V2K  2.16
22. F1M  2.11
23. V2Y  2.08
24. Y23M  2.06
25. N16Q  2.05
26. C20Q  2.03
27. C20F  2.03
28. T15N  2.03
29. K6D  1.96
30. V2C  1.95
31. Y21Q  1.93
32. W17A  1.93
33. T15K  1.93
34. W17D  1.91
35. Y21R  1.9
36. Y21W  1.89
37. V2A  1.88
38. E11D  1.88
39. L18N  1.86
40. W17I  1.84
41. N16V  1.82
42. C20D  1.79
43. T15F  1.79
44. R19L  1.78
45. Y23W  1.78
46. R19V  1.74
47. L18M  1.72
48. K6M  1.65
49. W17P  1.54
50. N16S  1.53
51. D12H  1.52
52. Y23H  1.51
53. C20W  1.5
54. E24Y  1.47
55. V2I  1.46
56. P9Y  1.38
57. C20P  1.23
58. P14C  1.19
59. D7E  1

Variants of: B2
Assay: as above
Conditions: c terminus: a fixed tail appended

In order of falling protein stability index:
1. I14E  4
2. E9I  3.63
3. I11E  3.59
4. F6D  3.53
5. I10G  3.39
6. I11A  3.34
7. F6G  3.31
8. F6E  3.22
9. R24D  3.18
10. I14T  3.09
11. I10Q  3.06
12. V17E  3.05
13. F6P  3.02
14. R4G  3.02
15. I11K  3
16. F19P  3
17. F6K  2.99
18. F6H  2.99
19. I10C  2.91
20. F7I  2.87
21. F19G  2.86
22. S2D  2.85
23. I10V  2.83
24. S13Q  2.82
25. I14V  2.81
26. R4S  2.8
27. R4P  2.8
28. F19Q  2.79
29. F7T  2.79
30. S20T  2.78
31. P1D  2.77
32. N3W  2.75
33. V17K  2.73
34. V17T  2.72
35. S22R  2.71
36. S5M  2.65
37. S2P  2.65
38. R4A  2.64
39. S8T  2.62
40. S13D  2.58
41. D16N  2.57
42. V17M  2.53
43. S13I  2.5
44. F19V  2.5
45. S12K  2.49
46. V17W  2.49
47. S22H  2.48
48. R4V  2.47
49. S20Q  2.45
50. I10F  2.43
51. F19I  2.43
52. P1N  2.42
53. S22T  2.42
54. S20L  2.41
55. P1Q  2.4
56. P1T  2.39
57. S15H  2.39
58. S20A  2.39
59. K18W  2.38
60. S5N  2.36
61. K18L  2.35
62. S12Q  2.33
63. S8Q  2.33
64. N3D  2.32
65. H21W  2.31
66. S12Y  2.3
67. S2N  2.29
68. V17A  2.27
69. S15V  2.27
70. S22M  2.27
71. G23Y  2.27
72. S20N  2.27
73. E9S  2.26
74. S20G  2.26
75. G23M  2.25
76. F7V  2.24
77. E9K  2.23
78. H21C  2.22
79. E9R  2.2
80. S13C  2.19
81. D16H  2.19
82. I14Y  2.19
83. S2M  2.17
84. D16R  2.15
85. N3T  2.14
86. S5L  2.13
87. S20C  2.12
88. G23W  2.09
89. N3F  2.06
90. S5Y  2.04
91. N3E  2.03
92. S20F  2.02
93. E9H  1.99
94. S8W  1.98
95. S5V  1.96
96. S20M  1.95
97. S20R  1.94
98. S8A  1.91
99. R4C  1.83
100. R4F  1.81
101. S15F  1.79
102. R24L  1.75
103. D16I  1.74
104. S15A  1.73
105. S5C  1.65
106. S13Y  1.65
107. S8V  1.52
108. E9M  1.47
